Reference: patent US20250099634A1, “METHOD OF TREATING CANCER” (Novartis AG, priority 2023, published 2025)

Legend:
[1] = NETTER-2 serious adverse events in the randomized treatment period (Safety Set)
Excerpt: All adverse events (AEs), whether or not spontaneously reported by the patient, will be recorded starting from the signing of the ICF until the end of the Treatment Phase. Safety summaries (tables, figures) include only data from the on-treatment period with the exception of baseline data which will also be summarized where appropriate (e.g. change from baseline summaries). In addition, a separate summary for death including on treatment and post treatment deaths will be provided. In particular, summary tables for adverse events (AEs) will summarize only on-treatment events, with a start date during the on-treatment period (treatment-emergent AEs).
Separate summaries will be provided for study medication related adverse events, death, serious adverse events, other significant adverse events leading to discontinuation and adverse events leading to dose adjustment.

[2] = system: Grade 2 and Grade 3 advanced GEP-NET; assay: NETTER-2 best overall response, ORR and DCR, central review using RECIST 1.1; type: in vivo, human; conditions: central review, Full Analysis Set
Excerpt: Objective Response Rate (ORR) will be calculated as the rate of patients with a best overall response of partial response (PR) or complete response (CR). Response duration will be calculated from the time of initial response until documented tumor progression. The Duration of Response (DOR) is defined as the time from initially meeting the criteria for response (CR or PR) until the time of progression by RECIST or death due to underlying disease. DOR will be reported descriptively for each group without comparison between groups.
Overall response rate (ORR) is defined as the proportion of subjects with best overall response (BOR) of complete response (CR) or partial response (PR), as per central review and according to RECIST 1.1.
ORR will be calculated based on the FAS and according to the ITT principle. ORR and its 95% confidence interval will be presented by treatment group. The Cochran-Mantel-Haenszel chi-square test, stratified by the randomization stratification factors, will be used to compare ORR between the two treatment groups, at the 1-sided 2.5% level of significance. As a supportive analysis, ORR as per local review will be presented by treatment group, along with 95% confidence intervals.
More precisely, it counts the presence of at least one confirmed CR or confirmed PR or SD. The DCR will be calculated based on FAS according to the ITT principle. DCR and its 95% confidence interval will be presented by treatment group. The Cochrane-Mantel-Haenszel chi-square test, stratified by the randomization stratification factors, will be used to compare DCR between the two treatment groups, at the one-sided 2.5% level of significance. The p-value to be generated using the Cochrane-Mantel-Haenszel chi-square test is considered nominal, and not to be considered confirmatory as it is not part of the testing strategy. The SAP will advise on how to proceed in case of few events in any stratum.

[3] = All grades, randomized treatment period, Safety Set
[4] = Grade >=3, randomized treatment period, Safety Set
[5] = randomized treatment period, Safety Set

C[C@@H](O)[C@H](NC(=O)[C@@H]1CSSC[C@H](NC(=O)[C@@H](Cc2ccccc2)NC(=O)CN2CCN(CC(=O)[O-])CCN(CC(=O)[O-])CCN(CC(=O)[O-])CC2)C(=O)N[C@@H](Cc2ccc(O)cc2)C(=O)N[C@H](Cc2c[nH]c3ccccc23)C(=O)N[C@@H](CCCCN)C(=O)N[C@@H]([C@@H](C)O)C(=O)N1)C(=O)O.[177Lu+3] [Lutathera, ^177Lu-DOTA^0-Tyr^3-Octreotate]
2 (1.4) n (%): Serious adverse event: Abdominal pain [1, 3] | Serious adverse event: Anaemia [1, 3] | Serious adverse event: Blood bilirubin increased [1, 3] | Serious adverse event: Gastrointestinal stoma complication [1, 3] | Serious adverse event: Pyrexia [1, 3] | Serious adverse event: Abdominal pain [1, 4]
65 (43.0) n (%): Overall Response Rate (ORR: CR + PR) [2]
5 (3.4) n (%): Serious adverse event: Small intestinal obstruction [1, 3]
1 (0.7) n (%): Serious adverse event: Ascites [1, 3] | Serious adverse event: Diarrhoea [1, 3] | Serious adverse event: Intestinal obstruction [1, 3] | Serious adverse event: Oedema peripheral [1, 3] | Serious adverse event: Anaemia [1, 4] | Serious adverse event: Blood bilirubin increased [1, 4] | Serious adverse event: Pyrexia [1, 4] | SAE with fatal outcome: Blood bilirubin increased [1, 5] | SAE with fatal outcome: Dyspnoea [1, 5] | SAE with fatal outcome: Intestinal perforation [1, 5]
24 (16.3) n (%): SAEs [1, 4] | Serious adverse events: Number of subjects with at least one event [1, 4]
20.4%: Serious AEs ([1]; randomized treatment period)
5.4%: Serious AEs, Treatment-related ([1]; randomized treatment period)
8 (5.4) n (%): SAEs Related to Any Treatment [1, 3] | SAEs Related to Lutathera [1, 3]
5 (3.4) (%): Incidence of SAEs: Small intestinal obstruction ([1]; most frequent SAE, summary table)
0 n (%): Fatal SAEs Related to Amino Acids [1, 3] | Fatal SAEs Related to Any Treatment [1, 3] | Fatal SAEs Related to Lutathera [1, 3] | Fatal SAEs Related to Octreotide [1, 3] | SAEs Related to Amino Acids [1, 3] | SAEs Related to Octreotide [1, 3] | Serious adverse event: Abdominal sepsis [1, 3] | Serious adverse event: Acute coronary syndrome [1, 3] | Serious adverse event: Acute kidney injury [1, 3] | Serious adverse event: Carcinoid heart disease [1, 3] | Serious adverse event: Carcinoid syndrome [1, 3] | Serious adverse event: Femur fracture [1, 3] | Serious adverse event: Gastroenteritis [1, 3] | Serious adverse event: Generalised oedema [1, 3] | Serious adverse event: Hip fracture [1, 3] | Serious adverse event: Hyperglycaemia [1, 3] | Serious adverse event: Hypertension [1, 3] | Serious adverse event: Hypoalbuminaemia [1, 3] | Serious adverse event: Jaundice [1, 3] | Serious adverse event: Lower gastrointestinal haemorrhage [1, 3] | Serious adverse event: Metabolic encephalopathy [1, 3] | Serious adverse event: Pleurisy [1, 3] | Serious adverse event: Tumour lysis syndrome [1, 3] | Fatal SAEs Related to Amino Acids [1, 4] | Fatal SAEs Related to Any Treatment [1, 4] | Fatal SAEs Related to Lutathera [1, 4] | Fatal SAEs Related to Octreotide [1, 4] | SAEs Related to Amino Acids [1, 4] | SAEs Related to Octreotide [1, 4] | Serious adverse event: Abdominal sepsis [1, 4] | Serious adverse event: Acute coronary syndrome [1, 4] | Serious adverse event: Acute kidney injury [1, 4] | Serious adverse event: Ascites [1, 4] | Serious adverse event: Carcinoid heart disease [1, 4] | Serious adverse event: Carcinoid syndrome [1, 4] | Serious adverse event: Diarrhoea [1, 4] | Serious adverse event: Femur fracture [1, 4] | Serious adverse event: Gastroenteritis [1, 4] | Serious adverse event: Generalised oedema [1, 4] | Serious adverse event: Hip fracture [1, 4] | Serious adverse event: Hyperglycaemia [1, 4] | Serious adverse event: Hypertension [1, 4] | Serious adverse event: Hypoalbuminaemia [1, 4] | Serious adverse event: Intestinal obstruction [1, 4] | Serious adverse event: Jaundice [1, 4] | Serious adverse event: Lower gastrointestinal haemorrhage [1, 4] | Serious adverse event: Metabolic encephalopathy [1, 4] | Serious adverse event: Oedema peripheral [1, 4] | Serious adverse event: Pleurisy [1, 4] | Serious adverse event: Tumour lysis syndrome [1, 4] | SAE with fatal outcome: Diarrhoea [1, 5] | SAE with fatal outcome: Tumor Lysis syndrome [1, 5] | Best Overall Response: Non-CR/Non-PD [2]
137 (90.7) n (%): Disease Control Rate (DCR: CR+PR+SD+Non-CR/Non-PD) [2]
3 (2.0) n (%): Fatal SAEs [1, 3] | Fatal SAEs [1, 4] | SAEs with fatal outcome [1, 5] | SAEs with fatal outcome reported in subjects with primary reason for death = Disease under Study [1, 5]
30 (20.4) n (%): SAEs [1, 3] | Serious adverse events: Number of subjects with at least one event [1, 3]
6 (4.1) n (%): SAEs Related to Any Treatment [1, 4] | SAEs Related to Lutathera [1, 4]
6 (4.0) n (%): Best Overall Response: Unknown [2]
8 (5.3) n (%): Best Overall Response: Complete Response (CR) [2] | Best Overall Response: Progressive Disease (PD) [2]
57 (37.7) n (%): Best Overall Response: Partial Response (PR) [2]
